Test results taken from publication PMC7263589, “Integration of phage and yeast display platforms: A reliable and cost effective approach for binning of peptides as displayed on-phage” (PLoS ONE, 2020).

Columns and labels:
IL-23 = molecular target: T1, IL-23 (Homo sapiens, UniProt P29460+Q9NPF7); assay: SPR direct binding to captured IL-23-AVI (Biacore T200); settings: IL-23-AVI captured on streptavidin chip, 25°C, 1:1 binding model, n = 1, 23–447 an estimate
T1 construct: made in house
T1 sequence (Q9NPF7 20-189): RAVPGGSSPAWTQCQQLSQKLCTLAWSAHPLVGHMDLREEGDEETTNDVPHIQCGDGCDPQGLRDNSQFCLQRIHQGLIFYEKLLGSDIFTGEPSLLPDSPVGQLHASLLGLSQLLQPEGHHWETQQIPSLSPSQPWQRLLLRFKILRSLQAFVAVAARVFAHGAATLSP
T1 sequence (P29460 23-328): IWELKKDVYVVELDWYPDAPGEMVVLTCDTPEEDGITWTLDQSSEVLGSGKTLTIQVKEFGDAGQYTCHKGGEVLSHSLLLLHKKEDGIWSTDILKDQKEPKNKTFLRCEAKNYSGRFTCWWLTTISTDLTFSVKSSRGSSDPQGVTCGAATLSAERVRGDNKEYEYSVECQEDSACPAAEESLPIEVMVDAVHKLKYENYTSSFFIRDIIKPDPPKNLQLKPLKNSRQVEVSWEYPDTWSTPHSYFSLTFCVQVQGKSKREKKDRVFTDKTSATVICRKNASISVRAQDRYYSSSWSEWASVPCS
Experimental: SPR (Biacore T200, GE Healthcare) was used to determine binding constants of the peptides against IL-23 and their competitiveness to IL-23R. All SPR experiments were performed at 25°C with flow rate of 50 μl/min. Assay buffer used in direct binding experiment was 10 mM HEPES pH 7.5, 150 mM NaCl, 0.005% P20, and 3% DMSO. Assay buffer used in competition experiment was 10 mM HEPES pH 7.5, 150 mM NaCl, 0.005% P20, and 1% BSA. All peptides were reconstituted first in DMSO as 10 mM stocks and then diluted into assay buffer. The proteins used in direct binding and competition SPR are described in S1 Table in S1 File. For direct binding of peptides against IL-23, 2000–9000 RU of IL-23-AVI was captured to streptavidin sensor chips (GE Healthcare, Series S Sensor Chip SA, BR-1005-31). Dilution series with 3-fold increment were prepared for each peptide. Initially, all peptides were tested up to 30 μM. Concentration range for some were then lowered accordingly based on affinity or nuisance behavior at high concentrations. SPR “multi-cycle” type was used for peptides 23–644, 23–437, 23–441, 23–446, and 23–447. Each cycle consisted of 30s of analyte injection and then 60s of buffer flow to monitor dissociation. “Single cycle kinetics” (SCK) type was used for 23–652 due to their long dissociation half-lives. Each SCK cycle consisted of five 60s injections of sample in increasing concentration with a final 600s of dissociation. To study IL-23 and IL-23R interaction, 200–1000 RU of IL-23-AVI and IL-23R-Fc-AVI were captured to streptavidin sensor chip. Dilution series with 3-fold increment of IL-23R-FLAG-HIS and IL-23-HIS were run in SCK cycle type as described above except the final dissociation time were 60-300s. Sensorgrams from the entire titration series for each sample were fitted globally to extract binding kinetics and affinity using Biacore T200 Evaluation Software 2.0 (GE Healthcare) according to a 1:1 binding model. To identify IL-23 binders that can block receptor binding, a competition SPR was established. In each SPR cycle, fresh IL-23R was capture (<1000 RU) by injecting 10 μg/ml of IL-23R-Fc-AVI to a Protein-A flow cell at 10 μl/min flow rate for 30s. Analyte consisted of a mixture of 20 nM of IL-23 protein and a single concentration of peptide was then injected for 30s at 50 μl/min to observe IL-23 binding. Finally, the Protein-A surface was regenerated by 10 mM Glycine pH 1.5 for 30s at 30 μl/min. IL-23 at 20 nM without peptide, “IL-23 only”, was used as control to quantify IL-23 binding without blockage; while “cold” IL-23R was used as a positive control for blockage.

IL-23 binding to IL-23R = assay: Competition SPR: IL-23 binding to captured IL-23R-Fc-AVI in the presence of peptide; settings: concentration tested 0.1 μM; 20 nM IL-23, IL-23R-Fc-AVI on Protein-A, 30 s injection, 1% BSA buffer; n = 1
Experimental: SPR (Biacore T200, GE Healthcare) was used to determine binding constants of the peptides against IL-23 and their competitiveness to IL-23R. All SPR experiments were performed at 25°C with flow rate of 50 μl/min. Assay buffer used in direct binding experiment was 10 mM HEPES pH 7.5, 150 mM NaCl, 0.005% P20, and 3% DMSO. Assay buffer used in competition experiment was 10 mM HEPES pH 7.5, 150 mM NaCl, 0.005% P20, and 1% BSA. All peptides were reconstituted first in DMSO as 10 mM stocks and then diluted into assay buffer. The proteins used in direct binding and competition SPR are described in S1 Table in S1 File. For direct binding of peptides against IL-23, 2000–9000 RU of IL-23-AVI was captured to streptavidin sensor chips (GE Healthcare, Series S Sensor Chip SA, BR-1005-31). Dilution series with 3-fold increment were prepared for each peptide. Initially, all peptides were tested up to 30 μM. […] IL-23 at 20 nM without peptide, “IL-23 only”, was used as control to quantify IL-23 binding without blockage; while “cold” IL-23R was used as a positive control for blockage.
The design of competition SPR was based on a knockdown assay (Fig 5A). […] Response levels of IL-23 plus peptide were measured post injection (Fig 5B) to avoid possible bulk RI difference between analyte and running buffer. […]

kd (IL-23): 0.00151 s⁻¹
ka (IL-23; 50 μl/min, 10 mM HEPES pH 7.5, 150 mM NaCl, 0.005% P20, 3% DMSO, multi-cycle (single cycle kinetics for 23–652 and IL-23R)): 170000 M⁻¹ s⁻¹
Competition SPR %Inhibition (IL-23 binding to IL-23R): 98.0%
B1: IL-23R: IL23R ECD (aa 1-353) with C-terminal Flag and HIS tags produced in HEK293 cells; positive control for blockage (protein)
chain: GITNINCSGHIWVEPATIFKMGMNISIYCQAAIKNCQPRKLHFYKNGIKERFQITRINKTTARLWYKNFLEPHASMYCTAECPKHFQETLICGKDISSGYPPDIPDEVTCVIYEYSGNMTCTWNAGKLTYIDTKYVVHVKSLETEEEQQYLTSSYINISTDSLQGGKKYLVWVQAANALGMEESKQLQIHLDDIVIPSAAVISRAETINATVPKTIIYWDSQTTIEKVSCEMRYKATTNQTWNVKEFDTNFTYVQQSEFYLEPNIKYVFQVRCQETGKRYWQPWSSLFFHKTPETVPQVTSKAFQHDTWNSGLTVASISTGHLTSDNRGDIGLLLGMIVFAVMLSILSLIGIFNRSFRTGIKRRILLLIPKWLYEDIPNMKNSNVVKMLQENSELMNNNSSEQVLYVDPMITEIKEIFIPEHKPTDYKKENTGPLETRDYPQNSLFDNTTVVYIPDLNTGYKPQISNFLPEGSHLSNNNEITSLTLKPPVDSLDSGNNPRLQKHPNFAFSVSSVNSLSNTIFLGELSLILNQGECSSPDIQNSVEEETTMLLENDSPSETIPEQTLLPDEFVSCLGIVNEELPSINTYFPQNILESHFNRISLLEK
modifications: fluorescent label (dye and site not stated)
